Measurements as given in patent US20140120109A1 (Regeneron, published 2014).

T1: Fhm, hTL1A(Q167R), soluble, CHO-expressed, residues 72-251 of SEQ ID NO:246 (human, UniProt O95150 72-251)
T1 chain: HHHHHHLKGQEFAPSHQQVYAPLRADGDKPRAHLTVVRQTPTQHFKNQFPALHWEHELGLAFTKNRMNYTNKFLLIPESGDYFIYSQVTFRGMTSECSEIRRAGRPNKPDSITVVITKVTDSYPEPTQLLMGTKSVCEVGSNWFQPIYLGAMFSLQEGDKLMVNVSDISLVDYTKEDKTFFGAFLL

T2: rat TL1A, soluble, CHO-expressed, residues 76-252 of SEQ ID NO:258 with N-terminal His6-tag (rat, UniProt Q8K3Y7 76-252)
T2 sequence: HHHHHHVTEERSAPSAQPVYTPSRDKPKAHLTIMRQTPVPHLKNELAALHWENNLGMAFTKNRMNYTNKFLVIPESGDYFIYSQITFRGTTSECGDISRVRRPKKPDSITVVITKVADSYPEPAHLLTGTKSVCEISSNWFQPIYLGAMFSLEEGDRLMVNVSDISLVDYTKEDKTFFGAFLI

T3: human TL1A, soluble, CHO-expressed, residues 72-251 of SEQ ID NO:244 with N-terminal His6-tag (human, UniProt O95150 72-251)
T3 sequence: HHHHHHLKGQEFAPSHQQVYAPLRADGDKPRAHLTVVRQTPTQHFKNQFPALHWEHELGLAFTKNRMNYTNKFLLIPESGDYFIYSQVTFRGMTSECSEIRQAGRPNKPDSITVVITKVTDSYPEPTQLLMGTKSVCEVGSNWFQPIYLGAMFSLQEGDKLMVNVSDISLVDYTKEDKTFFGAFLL

T4: full length human TL1A expressed on HEK293 cells (human, UniProt O95150 1-251)
T4 construct: also called HEK293/hTL1A; cell-surface hTL1A
T4 sequence: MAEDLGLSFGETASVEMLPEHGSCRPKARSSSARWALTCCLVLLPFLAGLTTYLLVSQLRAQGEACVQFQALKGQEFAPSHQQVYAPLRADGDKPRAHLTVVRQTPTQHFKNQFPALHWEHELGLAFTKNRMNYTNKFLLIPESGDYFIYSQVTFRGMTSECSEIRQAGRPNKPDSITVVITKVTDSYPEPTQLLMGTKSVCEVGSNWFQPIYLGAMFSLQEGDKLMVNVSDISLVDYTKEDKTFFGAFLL


How the values were obtained:
[1] = biological target: T1, Fhm, hTL1A(Q167R), soluble, …; test: cell-based or functional assay
[2] = biological target: T2, rat TL1A, soluble, CHO-expressed, …; test: cell-based or functional assay
[3] = biological target: T3, human TL1A, soluble, CHO-expressed, …; test: cell-based or functional assay
[4] = biological target: T1, Fhm, hTL1A(Q167R), soluble, …; test: ELISA, blocks FHM (150 pM) binding hDR3-Fc
Procedure: (§1) The ability of antibodies to block human TL1A binding to its cognate receptors, the DR3 and DcR3 receptors, was measured using a competition sandwich ELISA. In addition, blocking of a human TL1A variant FHM (human TL1A Q167R) and the cynomolgus monkey (Macaca fascicularis) TL1A (MfTL1A) protein binding to the human DR3 or DcR3 receptors was measured in the same manner. Constant amounts of biotinylated human TL1A or FHM (both expressed with a 6-His tag in CHO cells) or biotinylated MfTL1A (expressed in CHO cells) were separately titrated with varying amounts of antibodies. The antibody-protein complexes were incubated in solution (1 hr, 25° C.) and then transferred to microtiter plates coated with human DR3 (hDR3) or human DcR3 (hDcR3) expressed as human IgG1 Fc fusion proteins. After one hour at 25° C. the wells were washed, and bound human or monkey TL1A was detected with streptavidin conjugated with horseradish peroxidase (HRP). Wells were developed with a TMB solution to produce a colorimetric reaction and quenched with aqueous sulfuric acid before reading absorbance at 450 nm on a Perkin-Elmer Victor X5 plate reader. A sigmoidal dose-response curve was fit to the data using the Prism™ data analysis package. […] Both fully human anti-hTL1A mAbs and comparator antibodies, i.e., control mAb1 (an anti-hTL1A antibody with heavy and light chain variable domains having the amino acid sequences corresponding to SEQ ID NOS:21 and 27, respectively, of US 2009/0280116) and control mAb3 (an anti-hTL1A antibody with heavy and light chain variable domains having the amino acid sequences corresponding to SEQ ID NOS:57 and 48, respectively, of US 2009/0280116), were included in the study. NB: No binding under the conditions tested; NT: Not tested. Concentrations of biotinylated soluble ligands: (1) 150 pM; (2) 500 pM; (3) 10 pM; and (4) 50 pM.

[5] = biological target: T4, full length human TL1A expressed on …; test: flow, HEK293/hTL1A, mAb 1 ug/ml + 0.3 ug/ml soluble hTL1A
Procedure: Human embryonic kidney 293 cells stably transfected to over-express cell-surface hTL1A were first stained in a flow cytometric experiment with eight anti-hTL1A antibodies at four concentrations (1, 0.1, 0.01, and 0.003 μg/ml). […] The lowest antibody concentration providing significant staining levels was then used in a competition binding experiment. A negative isotype control antibody (human IgG4) was used at 1 μg/ml to define the background signal. For the competition experiment, eight antibody samples, at the minimal concentrations identified above, were first treated with soluble hTL1A expressed from CHO cells at concentrations ranging from 0.03 μg/ml to 10 μg/ml. After pre-incubation for 30 min on ice, the antibody/hTL1A mixture was added to 293/HEK-hTL1A cells that had been isolated by centrifugation in a 96-well conical plate. After incubation for an additional 10 minutes on ice, the cells were washed. The secondary reagent, anti-h Fcγ-APC F(ab′)₂, was added to all wells at a 200-fold dilution to detect bound antibodies. Samples were incubated for 15 minutes on ice, away from light, and then washed. Cells were processed on an BD™ LSR II Flow Cytometer (BD Biosciences) to detect anti-hTL1A antibodies bound to the cell surface, and data were analyzed using FlowJo software (version 8.8.6; Tree Star Inc.). Maximum signal: Anti-hTL1A antibody binding in the absence of soluble hTL1A; Minimum signal: Signal recorded when […] of isotype control antibody was added in place of the anti-hTL1A antibody. NT: Not tested.

[6] = biological target: T1, Fhm, hTL1A(Q167R), soluble, …; test: ELISA, blocks FHM (10 pM) binding hDcR3-Fc
Procedure: as §1

IC50, NFkB-luciferase reporter [1] [nM]	IC50, NFkB-luciferase reporter [2] [nM]	IC50, IFN-g release, average of donors [3] [nM]	IC50, IFN-g release, donor D1 [3] [nM]	IC50, IFN-g release, donor D2 [3] [nM]	IC50, IFN-g release, donor D3 [3] [nM]	IC50, IFN-g release, donor D4 [3] [nM]	IC50, IFN-g release, donor D5 [3] [nM]	IC50, IFN-g release, donor D6 [3] [nM]	IC50, IFN-g release, donor D7 [3] [nM]	IC50, IFN-g release, donor D8 [3] [nM]	IC50, IFN-g release, donor D9 [3] [nM]	IC50, IFN-g release, donor D10 [3] [nM]	IC50, IFN-g release, donor D11 [3] [nM]	IC50, IFN-g release, donor D12 [3] [nM]	IC50 [4] [nM]	MFI [5]	IC50 [6] [nM]	Binder
0.12	23.9	6.5	6.6	3.1	4.7	2.4	8.5	4.7	7	7	9.5	7.3	7.3	9.4	0.235	23.6	–	H4H1817N (antibody, human IgG4 S228P, V domains shown, human IgG4(S108P) form of H2M1817N) VH: QVQLQQWGAGLLKPSETLSLTCAVSGGSFSDYFWTWIRQPPGKGLEWIGEISHSGRTNYNPSLKSRVTISVDTSMSQFSLKMTSVTAADSAVYYCARDYPNWVFDYWGQGTLVTVSS VL: EIELTQSPGTLSLSPGEGATLSCRASQSVFNSYLAWYQQKPGQAPRLLIYGASRRATGIPDRFSGSGSGTDFTLTISRLEPGDFAVYFCQQYGNSPLTFGGGTKVEIK
–	–	–	–	–	–	–	–	–	–	–	–	–	–	–	–	236	–	H4H1681N (antibody, human IgG4 S228P, V domains shown) VH: EVQLLESGGGLVQPGKSLRLSCAVSGFTFSTYGMNWVRQAPGKGLEWVSSISGTGRTTYHADSVQGRFTVSRDNSKNILYLQMNSLRADDTAVYFCTKERGDYYYGVFDYWGQGTLVTVSS VL: DIQMTQSPSTLSASVGDRVTITCRASQTISSWLAWYQQTPEKAPKLLIYAASNLQSGVPSRFSGSGSGTEFTLTISSLQPDDFATYYCQQYHRSWTFGQGTKVEIT
0.15	–	–	–	–	–	–	–	–	–	–	–	–	–	–	0.044	115	0.085	H4H1745P (antibody, human IgG4 S228P, V domains shown) VH: EVQLVESGGGLVQPGGSLRLSCAASGFTFSSYAMTWVRQAPGKGLEWVSGVSGRGGSTYYADSVKGRFTISRDNSKNTLYLQMNSLRAEDTAVYYCAYWDISSFDYWGQGTLVTVSS VL: DIQLTQSPSFLSASVGDRVTITCWASQGISTYLAWYQQKPGKTPKLLIYAASTLQSGVPSRFSGSGSGTDFTLTISSLQPEDFATYYCQQFNSYPLTFGGGTKVEIK
0.53	6.12	20	24	4.6	10	13	12	10	31	27	56	12	27	14	0.214	44.7	0.231	H4H1742P (antibody, human IgG4 S228P, V domains shown) VH: EVQLVESGGGLVQPGGSLRLSCAASGFTFSNYVMNWVRQAPGKGLEWVSVISGSGGSTHYADSVKGRFTISRDNSKDALYLQMNSLRAEDTAVYYCAKGPLEAYYYYNGMDVWGQGTTVTVSS VL: DIQLTQSPSFLSASVGDRVTITCWASQAISSYLAWYQHKPGRAPKLLIYSTSTLQSGVPSRFSGSGSGTEFTLTISSLQPEDFATYYCQQLNSYPTFGQGTKLEIK
